{"source": "patent US20240254222A1", "about": "(Bayer, published 2024)", "key": {"[1]": {"target": "T1, Cyno Semaphorin3A-Sema Domain, TPP-19122 (cynomolgus (Macaca fascicularis), UniProt Q63548 21-569 (rat entry), limits assumed)", "T1 construct": "produced inhouse", "T1 chain": "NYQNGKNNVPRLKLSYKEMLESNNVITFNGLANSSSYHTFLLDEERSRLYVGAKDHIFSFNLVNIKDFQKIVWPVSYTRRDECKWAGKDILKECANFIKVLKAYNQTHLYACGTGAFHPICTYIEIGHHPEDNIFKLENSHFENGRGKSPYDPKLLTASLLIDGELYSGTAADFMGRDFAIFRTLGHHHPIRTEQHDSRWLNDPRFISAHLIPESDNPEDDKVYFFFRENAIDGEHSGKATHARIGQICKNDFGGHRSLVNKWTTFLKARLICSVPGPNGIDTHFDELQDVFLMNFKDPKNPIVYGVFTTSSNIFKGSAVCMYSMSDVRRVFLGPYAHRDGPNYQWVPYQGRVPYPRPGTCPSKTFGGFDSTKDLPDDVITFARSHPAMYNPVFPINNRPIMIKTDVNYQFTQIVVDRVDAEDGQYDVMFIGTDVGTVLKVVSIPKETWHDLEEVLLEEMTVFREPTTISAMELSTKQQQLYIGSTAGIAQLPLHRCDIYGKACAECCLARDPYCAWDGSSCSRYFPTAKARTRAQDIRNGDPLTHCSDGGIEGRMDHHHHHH", "test": "SPR, captured antibody, Sema3A domain analyte", "experimental": "(§1) To assess the binding kinetics and affinity of anti-Sema3A antibodies as well as their species cross-reactivity profile, binding assays were conducted using surface plasmon resonance (SPR). Binding assays were performed on a Biacore T200 instrument or on a Biacore 8K+ instrument (Cytiva) at 25° C. using assay buffer HBS P+, 300 mM NaCl, 0.75 mM CaCl₂, 2.5 mM MgCl₂, 1 mg/ml BSA, 0.05% NaN₃. Antibodies were captured either via anti-human Fc IgGs (“Human antibody capture kit”, Order No. BR100839, Cytiva) or in case of Fc-tagged analytes by anti-human Fab IgGs (“Human Fab capture kit”, Order No. 28958325, Cytiva) covalently amine coupled to a Series S CM5 sensor chip (Cytiva). The amine coupling was carried out according to the manufacturer's instructions using 1-ethyl-3-(3-dimethylaminopropyl) carbodiimide hydrochloride (EDC), N-hydroxysuccinimide (NHS) and ethanolamine HCl, pH 8.5 (“Amine Coupling Kit” BR-1000-50, Cytiva.). For phage display hits Fc-tagged human and mouse Sema3A was used as analytes in a concentration range from 1.56-200 nM. Human, mouse, cynomolgus, rat, dog and pig monovalent Sema3A domain were used as analytes in a concentration series from […] in multi cycle kinetics mode or in 100 nM for binding analysis only. The sensor surface was regenerated with glycine pH 2.0 after each antigen injection. Obtained sensorgrams were double referenced (subtraction of reference flow cell signal and buffer injection) and were fitted to a 1:1 Langmuir binding model to derive kinetic data using the Biacore T200 Evaluation software."}, "[2]": {"target": "T2, Human Semaphorin3A-Sema Domain, TPP-19068 (human, UniProt Q14563 21-569)", "T2 construct": "produced inhouse in HEK293-6E; also called human monovalent Sema3A domain", "T2 sequence": "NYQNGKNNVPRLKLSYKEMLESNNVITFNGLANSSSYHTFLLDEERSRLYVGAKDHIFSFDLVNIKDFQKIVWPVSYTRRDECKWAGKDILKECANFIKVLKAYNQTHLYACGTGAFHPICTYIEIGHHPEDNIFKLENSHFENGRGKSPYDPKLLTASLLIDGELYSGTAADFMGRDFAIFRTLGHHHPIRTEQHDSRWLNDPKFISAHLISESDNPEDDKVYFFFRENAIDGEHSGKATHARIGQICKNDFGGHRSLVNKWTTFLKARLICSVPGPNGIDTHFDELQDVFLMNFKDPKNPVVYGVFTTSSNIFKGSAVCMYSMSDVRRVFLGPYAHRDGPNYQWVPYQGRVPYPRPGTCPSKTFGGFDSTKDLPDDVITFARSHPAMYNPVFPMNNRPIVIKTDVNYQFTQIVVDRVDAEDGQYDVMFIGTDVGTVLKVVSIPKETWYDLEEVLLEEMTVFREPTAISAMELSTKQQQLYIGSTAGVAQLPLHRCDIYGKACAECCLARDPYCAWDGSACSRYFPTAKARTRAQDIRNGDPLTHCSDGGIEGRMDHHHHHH", "test": "SPR, captured antibody, Sema3A domain analyte", "experimental": "as §1"}, "[3]": {"target": "T3, Mouse Semaphorin3A-Sema Domain, TPP-19069 (mouse, UniProt O08665 21-569)", "T3 construct": "produced inhouse", "T3 sequence": "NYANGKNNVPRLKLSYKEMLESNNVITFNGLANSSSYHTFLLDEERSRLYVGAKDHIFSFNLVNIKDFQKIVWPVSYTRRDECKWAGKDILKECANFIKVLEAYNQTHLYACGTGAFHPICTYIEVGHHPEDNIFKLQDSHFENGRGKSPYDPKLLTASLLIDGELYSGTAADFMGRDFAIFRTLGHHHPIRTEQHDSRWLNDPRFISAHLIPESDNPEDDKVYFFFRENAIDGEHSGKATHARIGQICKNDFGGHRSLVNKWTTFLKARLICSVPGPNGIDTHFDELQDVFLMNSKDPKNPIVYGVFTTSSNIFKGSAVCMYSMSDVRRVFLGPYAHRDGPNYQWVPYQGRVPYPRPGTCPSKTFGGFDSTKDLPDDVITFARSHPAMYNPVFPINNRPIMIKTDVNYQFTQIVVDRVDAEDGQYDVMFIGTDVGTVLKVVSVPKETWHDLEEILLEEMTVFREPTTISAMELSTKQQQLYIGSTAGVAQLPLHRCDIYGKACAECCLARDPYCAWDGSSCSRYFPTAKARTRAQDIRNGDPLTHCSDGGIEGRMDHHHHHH", "test": "SPR, captured antibody, Sema3A domain analyte", "experimental": "as §1"}, "[4]": {"target": "T4, Human Semaphorin3A-Fc (R&D Systems), TPP-13211 (human)", "T4 construct": "R&D Systems 1250-S3; also called recombinant human Sema3A-Fc chimera", "T4 sequence (chain, as listed by the source limits assumed)": "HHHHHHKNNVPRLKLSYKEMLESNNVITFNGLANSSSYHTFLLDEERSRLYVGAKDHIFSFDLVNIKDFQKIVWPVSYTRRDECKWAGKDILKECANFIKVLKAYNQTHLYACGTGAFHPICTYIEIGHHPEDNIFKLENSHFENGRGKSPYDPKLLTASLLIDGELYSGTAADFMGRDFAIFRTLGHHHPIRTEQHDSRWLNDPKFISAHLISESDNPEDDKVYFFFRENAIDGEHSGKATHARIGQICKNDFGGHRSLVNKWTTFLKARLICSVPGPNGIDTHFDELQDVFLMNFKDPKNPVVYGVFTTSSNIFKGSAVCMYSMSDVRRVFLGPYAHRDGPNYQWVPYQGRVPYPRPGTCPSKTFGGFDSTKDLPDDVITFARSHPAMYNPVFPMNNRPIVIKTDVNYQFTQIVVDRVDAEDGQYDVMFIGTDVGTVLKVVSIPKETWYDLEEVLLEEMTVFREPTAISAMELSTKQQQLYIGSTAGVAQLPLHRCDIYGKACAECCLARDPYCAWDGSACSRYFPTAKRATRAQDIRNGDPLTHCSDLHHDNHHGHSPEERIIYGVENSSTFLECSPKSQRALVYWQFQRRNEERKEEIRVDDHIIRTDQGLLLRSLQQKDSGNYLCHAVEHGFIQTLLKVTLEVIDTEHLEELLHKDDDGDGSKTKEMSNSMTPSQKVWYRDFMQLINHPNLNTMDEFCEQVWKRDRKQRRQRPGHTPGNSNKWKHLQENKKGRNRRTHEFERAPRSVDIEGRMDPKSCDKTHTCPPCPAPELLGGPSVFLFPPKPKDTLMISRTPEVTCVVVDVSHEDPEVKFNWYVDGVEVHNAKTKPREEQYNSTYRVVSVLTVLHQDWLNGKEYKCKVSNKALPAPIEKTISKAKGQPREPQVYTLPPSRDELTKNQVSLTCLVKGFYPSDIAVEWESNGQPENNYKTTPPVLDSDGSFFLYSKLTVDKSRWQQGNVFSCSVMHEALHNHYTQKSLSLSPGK", "test": "competition ELISA on coated TPP-13211, competitor biotinylated TPP-15374", "experimental": "For screening in a competition ELISA setup, human Sema3a (TPP-13211) was coated onto 384-well plates (Greiner bio-one, 781077) with a concentration of 0.5 μg/ml in coating buffer (Carbonate-Basis pH 9.6, Candor 121125) over night at 10° C. After washing the plates 3 times with 50 μl PBS 0.05% Tween the plates were blocked with 50 μl Smart Block® (Candor 113500) for 1 h at 20° C. and washed again 3 times as described.\nSubsequently, 20 μl of pre-mixed antibody solution was added to the plates and incubate for 18 h at 10° C. […] The total concentration of the added antibody solution was 0.25 μg/ml. During the incubation time the antibodies bound to the plates in a competitive manner as they compete for the same epitope on the human Sema3A protein.\nAfter subsequent washing with 50 μl PBS 0.05% Tween for 3 times, 20 μl of a Streptavidin-HRP solution (R&D Systems, DY998, 1:200 in PBS 0.05% Tween 10% Smart Block) were added and incubated for 1 h and 20° C. followed by subsequent washing 3 times with 50 μl PBS 0.05% Tween and addition of 20 μl Amplex Red solution (Invitrogen A12222, 1:1000 in NaP-buffer 50 mM pH7.6 with 1:10000 of 30% H2O2). After a final incubation for 20 min at 20° C. the signal was determined using an emission wavelength of 595 nm and excitation of 530 nm."}}, "data": [{"binder": "TPP-18533 (antibody, human IgG1, lambda, V domains shown, IgG1) VH: EVQLLESGGGLVQPGGSLRLSCAASGFTFSSYEMNWVRQAPGKGLEWVSGISWNSGSIGYADSVKGRFTISRDNSKNTLYLQMNSLRAEDTAVYYCARSGYSSSWFDPDFDYWGQGTLVTVSS VL: QSVLTQPPSVSGAPGQRVTISCTGSSSNIGAGYDVHWYQQLPGTAPKLLIYGNSNRPSGVPDRFSGSKSGTSASLAITGLQAEDEADYYCSSYAGSNPYVVFGGGTKLTVLG", "values": [{"measurement": "Kd", "setting": "[1]", "result": 6.4, "unit": "nM"}, {"measurement": "Kd", "setting": "[2]", "result": 8.7, "unit": "nM"}, {"measurement": "Kd", "setting": "[3]", "result": 8.1, "unit": "nM"}]}, {"binder": "TPP-25257 (antibody, human IgG1, lambda, V domains shown) VH: EVQLLESGGGLVQPGGSLRLSCAASGFDFDSYEMNWVRQAPGKGLEWVSGISWNSGWIDYADSVKGRFTISRDNSKNTLYLQMNSLRAEDTAVYYCARSGYSSSWFDPDFDYWGQGTLVTVSS VL: QSVLTQPPSVSGAPGQRVTISCTGSSSNIGAGYDVHWYQQLPGTAPKLLIYGNSNRPSGVPDRFSGSKSGTSASLAITGLQAEDEADYYCQSYAGPNPYVVFGGGTKLTVLG", "values": [{"measurement": "Kd", "setting": "[2]", "result": 0.053, "unit": "nM"}, {"measurement": "VAL norm to TPP-9809 (1 to 1 ratio)", "setting": "[4]", "result": 0.36}, {"measurement": "VAL norm to TPP-9809 (1 to 5 ratio)", "setting": "[4]", "result": 0.18}]}, {"binder": "TPP-25256 (antibody, human IgG1, lambda, V domains shown) VH: EVQLLESGGGLVQPGGSLRLSCAASGFTFDSYEMNWVRQAPGKGLEWVSGISWNSGWIDYADSVKGRFTISRDNSKNTLYLQMNSLRAEDTAVYYCARSGYSSSWFDPDFDYWGQGTLVTVSS VL: QSVLTQPPSVSGAPGQRVTISCTGSSSNIGAGYDVHWYQQLPGTAPKLLIYGNSNRPSGVPDRFSGSKSGTSASLAITGLQAEDEADYYCQSYAGPNPYVVFGGGTKLTVLG", "values": [{"measurement": "Kd", "setting": "[2]", "result": 0.049, "unit": "nM"}, {"measurement": "VAL norm to TPP-9809 (1 to 1 ratio)", "setting": "[4]", "result": 0.41}, {"measurement": "VAL norm to TPP-9809 (1 to 5 ratio)", "setting": "[4]", "result": 0.15}]}, {"binder": "TPP-25064 (antibody, human IgG1, lambda, V domains shown) VH: EVQLLESGGGLVQPGGSLRLSCAASGFTFDSYEMNWVRQAPGKGLEWVSGISWNSGWIDYADSVKGRFTISRDNSKNTLYLQMNSLRAEDTAVYYCARSGYSSSWFDPDFDYWGQGTLVTVSS VL: QSVLTQPPSVSGAPGQRVTISCTGSSSDIGAGYDVHWYQQLPGTAPKLLIYGNSNRPSGVPDRFSGSKSGTSASLAITGLQAEDEADYYCSSYAGPNPYVVFGGGTKLTVLG", "values": [{"measurement": "Kd", "setting": "[2]", "result": 0.049, "unit": "nM"}, {"measurement": "VAL norm to TPP-9809 (1 to 1 ratio)", "setting": "[4]", "result": 0.48}, {"measurement": "VAL norm to TPP-9809 (1 to 5 ratio)", "setting": "[4]", "result": 0.19}]}, {"binder": "TPP-25248 (antibody, human IgG1, lambda, V domains shown) VH: EVQLLESGGGLVQPGGSLRLSCAASGFDFSSYEMNWVRQAPGKGLEWVSGISWNSGWIGYADSVKGRFTISRDNSKNTLYLQMNSLRAEDTAVYYCARSGYSSSWFDPDFDYWGQGTLVTVSS VL: QSVLTQPPSVSGAPGQRVTISCTGSSSNIGAGYDVHWYQQLPGTAPKLLIYGNSNRPSGVPDRFSGSKSGTSASLAITGLQAEDEADYYCQSYAGPNPYVVFGGGTKLTVLG", "values": [{"measurement": "Kd", "setting": "[2]", "result": 0.05, "unit": "nM"}, {"measurement": "VAL norm to TPP-9809 (1 to 1 ratio)", "setting": "[4]", "result": 0.36}, {"measurement": "VAL norm to TPP-9809 (1 to 5 ratio)", "setting": "[4]", "result": 0.2}]}, {"binder": "TPP-25448 (antibody, human IgG1, lambda, V domains shown) VH: EVQLLESGGGLVQPGGSLRLSCAASGFTFDSYEMNWVRQAPGKGLEWVSGISWNSGWIDYADSVKGRFTISRDNSKNTLYLQMNSLRAEDTAVYYCARSGYSSSWFDPDFDYWGQGTLVTVSS VL: QSVLTQPPSVSGAPGQRVTISCTGSSSDIGAGYDVHWYQQLPGTAPKLLIYGNSNRPSGVPDRFSGSKSGTSASLAITGLQAEDEADYYCQSYAGINPYVVFGGGTKLTVLG", "values": [{"measurement": "Kd", "setting": "[2]", "result": 0.053, "unit": "nM"}, {"measurement": "VAL norm to TPP-9809 (1 to 1 ratio)", "setting": "[4]", "result": 0.47}, {"measurement": "VAL norm to TPP-9809 (1 to 5 ratio)", "setting": "[4]", "result": 0.19}]}, {"binder": "TPP-25224 (antibody, human IgG1, lambda, V domains shown) VH: EVQLLESGGGLVQPGGSLRLSCAASGFTFDSYEMNWVRQAPGKGLEWVSGISWNSGWIDYADSVKGRFTISRDNSKNTLYLQMNSLRAEDTAVYYCARSGYSSSWFDPDFDYWGQGTLVTVSS VL: QSVLTQPPSVSGAPGQRVTISCTGSSSNIGAGYDVHWYQQLPGTAPKLLIYGNSNRPSGVPDRFSGSKSGTSASLAITGLQAEDEADYYCQSYAGINPYVVFGGGTKLTVLG", "values": [{"measurement": "Kd", "setting": "[2]", "result": 0.049, "unit": "nM"}, {"measurement": "VAL norm to TPP-9809 (1 to 1 ratio)", "setting": "[4]", "result": 0.43}, {"measurement": "VAL norm to TPP-9809 (1 to 5 ratio)", "setting": "[4]", "result": 0.17}]}, {"binder": "TPP-25255 (antibody, human IgG1, lambda, V domains shown) VH: EVQLLESGGGLVQPGGSLRLSCAASGFDFSSYEMNWVRQAPGKGLEWVSGISWNSGWIDYADSVKGRFTISRDNSKNTLYLQMNSLRAEDTAVYYCARSGYSSSWFDPDFDYWGQGTLVTVSS VL: QSVLTQPPSVSGAPGQRVTISCTGSSSNIGAGYDVHWYQQLPGTAPKLLIYGNSNRPSGVPDRFSGSKSGTSASLAITGLQAEDEADYYCQSYAGPNPYVVFGGGTKLTVLG", "values": [{"measurement": "Kd", "setting": "[2]", "result": 0.051, "unit": "nM"}, {"measurement": "VAL norm to TPP-9809 (1 to 1 ratio)", "setting": "[4]", "result": 0.37}, {"measurement": "VAL norm to TPP-9809 (1 to 5 ratio)", "setting": "[4]", "result": 0.17}]}]}
